According to PMC7289600, “Signaling diversity enabled by Rap1-regulated plasma membrane ERK with distinct temporal dynamics” (eLife, 2020):

Molecular target: T1, Rap1-binding domain (RBD) from RalGDS fused to the acceptor fluorophore Ypet (second chain of Rap1A/B-FLARE) (UniProt Q12967 798-885)
T1 construct: also called RalGDS RBD; source: PC12 cells, transfected (Lipofectamine 2000), in living cells
T1 sequence (looked up): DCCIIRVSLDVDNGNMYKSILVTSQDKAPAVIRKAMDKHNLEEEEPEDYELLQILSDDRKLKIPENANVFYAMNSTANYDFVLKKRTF
Assay: FRET or BRET; dual-chain Rap1A/B-FLARE biosensors expressed in living PC12 cells; EGF added at time 0; yellow over cyan (Y/C) emission ratio imaging in HBSS at 37°C; increase abrogated by co-expression of Rap1GAP or by GGTI-298
Conditions: partners not purified

B1: Rap1A fused to the donor fluorophore mCerulean3 (Rap1A chain of the dual-chain biosensor Rap1A-FLARE) (natural protein, UniProt P62834 1-184, looked up)
chain: MREYKLVVLGSGGVGKSALTVQFVQGIFVEKYDPTIEDSYRKQVEVDCQQCMLEILDTAGTEQFTAMRDLYMKNGQGFALVYSITAQSTFNDLQDLREQILRVKDTEDVPMILVGNKCDLEDERVVGKEQGQNLARQWCNCAFLESSAKSKINVNEIFYDLVRQINRKTPVEKKKPKKKSCLLL
notes: Rap1A, GTPase of the Ras family; plasmid provided by Klaus Hahn; source: PC12 cells, transfected (Lipofectamine 2000), in living cells; not shown: mCerulean3, N-terminal, kept
Question: Which “increase in Y/C emission ratio (FRET) after EGF” value does the source give for B1 here?
Answer: 25.4%

B2: Rap1B fused to the donor fluorophore mCerulean3 (Rap1B chain of the dual-chain biosensor Rap1B-FLARE) (natural protein, UniProt P61224 1-184, looked up)
chain: MREYKLVVLGSGGVGKSALTVQFVQGIFVEKYDPTIEDSYRKQVEVDAQQCMLEILDTAGTEQFTAMRDLYMKNGQGFALVYSITAQSTFNDLQDLREQILRVKDTDDVPMILVGNKCDLEDERVVGKEQGQNLARQWNNCAFLESSAKSKINVNEIFYDLVRQINRKTPVPGKARKKSSCQLL
notes: Rap1B, GTPase of the Ras family; plasmid provided by Klaus Hahn; source: PC12 cells, transfected (Lipofectamine 2000), in living cells; not shown: mCerulean3, N-terminal, kept
Question: Which “increase in Y/C emission ratio (FRET) after EGF” value does the source give for B2 here?
Answer: 26%
